Legend:
[1] = Emission value of secretion-expressed luciferase in COS-7 culture medium, coelenterazine substrate; format: biochemical; details: for emission values (rank order): Experiment 5
Experimental: (§1) • (1) COS-7 cells derived from the kidney of African green monkey were inoculated in a 24-well dish, and on the next day, subconfluency was attained. • (2) 25 μL of Opti-MEM (Thermo Fisher Scientific™), 400 ng (2 μL) of the plasmid, and 1 μL of P3000 (Invitrogen™, Waltham, MA) were mixed. • (3) 25 μL of Opti-MEM and 1 μL of lipofectoamine 3000 (Invitrogen™) were mixed. • (4) (2) and (3) were mixed together, followed by incubation at room temperature for 5 minutes. • (5) The mixture was added to the medium of (1). • (6) 500 μL of Dulbecco's modified Eagle's medium was added, followed by culturing the cells at 37° C. for 1 day and then collecting the medium. The medium contained secretion-expressed luciferase. • (7) To 100 μL of the medium, coelenterazine was added as a substrate at a final concentration of 5 μM, followed by measuring the emission value by using Enspire multi-mode plate reader (PerkinElmer™, Waltham, MA).
By the same manner as in Experiment 2, the emission value was measured.
(§2) The emission value was measured in the same manner as in Experiment 2 except that the final concentration of coelenterazine was changed to 0.5 μM. […] The emission value was measured in the same manner as in Experiment 2 except that the final concentration of coelenterazine was changed to 5 μM.

[2] = Emission value of secretion-expressed luciferase in COS-7 culture medium, coelenterazine h substrate; format: biochemical; details: Experiment 5
Experimental: as §1
as §2, with “that coelenterazine h was used as a substrate in a” for “that the”, “of 5” for “of coelenterazine was changed to 0.5”, “of 25” for “of coelenterazine was changed to 5”

[3] = Emission value of secretion-expressed luciferase in COS-7 culture medium, furimazine substrate; format: biochemical; details: Experiment 5; furimazine in the concentration recommended by the manufacturer
Experimental: as §1
The emission value was measured in the same manner as in Experiment 2 except that furimazine, which was available from Promega™ as a NanoLuc® substrate, was used as a substrate in the concentration recommended by the manufacturer.

[4] = Stability of protein terminus: Western blot detection of Flag-tag and His-tag in culture supernatant; details: secretion-expressed luciferase in COS-7 culture supernatant; Western blotting
Source text: In the same manner as in Experiment 2, the plasmid was transfected into COS-7 cells and culture supernatant was collected. Flag-tag added to the N terminus of each secretion-expressed luciferase and His-tag added to the C terminus thereof were detected by Western blotting (SDS-PAGE, Mini-PROTEAN TGX Gel StainFree 4-15% (Bio-Rad™, Hercules, CA)) (FIG. 17). The antibodies used were Anti 6×Histidine, Monoclonal Antibody (9C11), Peroxidase Conjugated (manufactured by FUJIFILM Wako Pure Chemical Corporation, 1:1000) and Monoclonal ANTI-FLAG (R) M2-Peroxidase (HRP) antibody produced in mouse, clone M2 (manufactured by Sigma-Aldrich™, St. Louis, MO, 1/1000), respectively, and detection was performed with Amesham Imager 680 (Cytiva™, Marlborough, MA).

[5] = Measurement of specific activity (enzyme concentrations adjusted by Western blot signal); format: biochemical
Experimental: The specific activities of NanoLuc®, ALuc30 wt, and picALuc30 were measured, with their enzyme concentrations adjusted based on the Western blot signal intensity obtained in Experiment 6.

[6] = Thermal stability of secretion-expressed picALuc30 (heat treatment, then emission value); format: physicochemical
Experimental: In the same manner as in Experiment 2, the plasmid was transfected into COS-7 cells and the medium was collected. The culture supernatant containing picALuc30 was incubated for 10 minutes at room temperature (25° C.), 40° C., 50° C., 60° C., 70° C., 80° C., or 90° C., and then the emission value was measured. […] (FIG. 22), indicating a sufficient level of practical utility.

[7] = Specific activity of picALuc30 expressed in Escherichia coli versus secretion-expressed by COS-7 cells; format: biochemical; details: concentrations adjusted by Western blotting
Experimental: • (1) A DNA sequence coding for picALuc30 was inserted into a pET32 vector to prepare a plasmid. Transformation was carried out into Escherichia coli SHuffle T7 express lysY (New England Biolab). • (2) Escherichia coli from (1) was inoculated into an LB plate (containing […] of ampicillin). • (3) Next day, one colony was taken out, and cultured with shaking overnight at 30° C. in a test tube containing 2 mL of LB medium (containing […] of ampicillin). • (4) 1 mL of (3) was added to 100 mL of LB medium (containing […] of ampicillin), followed by shaking culture at 30° C. in a 500-mL flask until the absorbance OD600 reached about 0.4. • (5) When the absorbance OD600 reached about 0.4, 40 μL of 1-M isopropyl-β-thiogalactopyranoside was added, followed by overnight culture at 16° C. • (6) The bacterial cells were collected, followed by purification of the protein using HisTALON Buffer Set and TALON Metal Affinity Resin (both from Takara Bio Inc.). From 100 mL of the medium, 1.7 mg of picALuc30 was obtained.

[8] = Thermal stability of picALuc30 purified from Escherichia coli; format: physicochemical; details: expressed in Escherichia coli

B1: picALuc30: SEQ ID NO: 51; amino acids 54 to 175 of ALuc30 wt, without the N terminus and C terminus; 13 kDa luciferase (protein)
chain: KLPGKKLPLEVLKELEANAQKAGCTRGCLICLSHIKCTAKMKKWLPGRCESWEGDKETGQGGIGEAIVDIPEIPGFKELAPMEQFIAQVDLCADCTTGCLKGLANVKCSALLKKWLPSRCAG
modifications: picALuc30
notes: amino acids 54 to 175 of ALuc30 wt, without the N terminus and C terminus; 13 kDa luciferase
emission value ([1]; Experiment 2, coelenterazine 5 μM, medium of transfected COS-7 cells): the same as or higher than that of ALuc30 wt | emission values (rank order) ([1]; coelenterazine 0.5 μM): NanoLuc®>>picALuc30>TurboLuc™>ALuc30 wt>GLuc | emission values (rank order) ([1]; coelenterazine 5 μM): ALuc30 wt=picALuc30>NanoLuc®>TurboLuc™>GLuc | emission value compared with NanoLuc and TurboLuc ([1]; secretion-expressed, substrate coelenterazine or coelenterazine h in a high concentration (summary of Experiment 5)): equal to or higher than NanoLuc® and TurboLuc™ | emission values (rank order) ([2]; coelenterazine h 5 μM): TurboLuc™=ALuc30 wt>>NanoLuc®>picALuc30>GLuc | emission values (rank order) ([2]; coelenterazine h 25 μM): picALuc30>>NanoLuc®=TurboLuc™=ALuc30 wt>>GLuc | emission value [3]: low as compared to NanoLuc® and TurboLuc™ | stability of protein termini (Flag-tag and His-tag detection) [4]: both termini remaining | maximum emission value ([5]; Experiment 7): same maximum emission value as NanoLuc® | specific activity ([5]; coelenterazine or coelenterazine h as substrate): the same | activity remained ([6]; 10-minute incubation at 50° C.): ≥ 80% | activity remained ([6]; 10-minute incubation at 60° C.): ≥ 80% | activity remained ([6]; 10-minute incubation at 70° C.): ≥ 50% | specific activity, secretion expressed by COS-7 cells versus prepared in Escherichia coli [7]: approximately the same | activity after heat treatment ([8]; 10-minute incubation at 60° C.): lost little activity | activity remained ([8]; 10-minute incubation at 70° C.): ≥ 90% | activity remained ([8]; 10-minute incubation at 80° C.): ≥ 80%
